Tests used:
[1] = target: protease-activated receptor 2 (PAR-2) on human eosinophils / BEAS-2B airway epithelial cells (UniProt P55085)
[2] = system: T1, fluorescent quenched PAR-2 peptide substrate Abz-SKGRSLIGK(Dnp)D
T1 sequence: SKGRSLIGK

protease-activated receptor 2 (PAR-2) on human eosinophils / BEAS-2B airway epithelial cells, sequence (P55085 whole entry, looked up): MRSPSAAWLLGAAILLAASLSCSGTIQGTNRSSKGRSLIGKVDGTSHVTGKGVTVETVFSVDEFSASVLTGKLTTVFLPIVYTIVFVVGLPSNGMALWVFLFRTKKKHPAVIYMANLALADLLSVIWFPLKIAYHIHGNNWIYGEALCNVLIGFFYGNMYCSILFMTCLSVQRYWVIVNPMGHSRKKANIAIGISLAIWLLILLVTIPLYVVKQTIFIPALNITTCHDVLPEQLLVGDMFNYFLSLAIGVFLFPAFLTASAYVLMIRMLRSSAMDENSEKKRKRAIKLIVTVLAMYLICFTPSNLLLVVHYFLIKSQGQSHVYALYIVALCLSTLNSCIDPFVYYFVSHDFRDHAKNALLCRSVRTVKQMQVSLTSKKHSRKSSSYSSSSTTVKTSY

Substance | deglycosylation and downregulation of PAR-2 in eosinophils (Western blot) [1] | in vitro assay for PAR-2 cleavage and activation (fluorescent quenched peptide substrate) [2]
Aspergillus xylanase | The 41 kDa and 70 kDa PAR-2 molecules were deglycosylated by xylanase temporarily | 
trypsin |  | trypsin, as positive control, clearly cleaved this peptide

— US7662400
